The text below walks through data of patent publication US20120282173A1 (FORERUNNER PHARMA RESEARCH, published 2012).

Assay [1] addresses T1, active-form HB-EGF protein (R&D Systems, Inc., 259-HE) (human, UniProt Q99075 63-148). Kind of assay: cell-based or functional assay.
The target of assay [2] is proHB-EGF mutated at the protease cleavage site, expressed on Ba/F3 cells (HB-EGF_Ba/F3) (human) (UniProt Q99075). The experiment in a line: FACS, hybridoma culture supernatant on HB-EGF_Ba/F3 cells, EXP. 2 (no-mAb 6.9). (Flow cytometry measures light scatter and fluorescence of single cells or particles in a stream.)
Assay [3] shares this target. The experiment in a line: FACS, hybridoma culture supernatant on HB-EGF_Ba/F3 cells, EXP. 1 (no-mAb 19.1).
Assay [4] addresses T2, HB-EGF expressed on the cell membrane (proHB-EGF), from pMCN_HB-EGF in DG44 and SKOV-3 cells or intrinsic in … (human, UniProt Q99075 20-208).
T2 construct: Full-length human HB-EGF without the cleavage-site mutation
The experiment in a line: FACS on HB-EGF_DG44 cells, FITC-labeled anti-human IgG, Geo-Mean against concentration; the text says ED50, about.

Assay [5] concerns the target T1, active-form HB-EGF protein (R&D …). The experiment in a line: ELISA on plate coated with 1 ug/mL HB-EGF protein (R&D 259-HE), AP-labeled anti-human IgG; the text says ED50, about. For orientation: An ELISA detects its analyte on a solid surface through an enzyme-linked reagent.
Assay [6] addresses T2, HB-EGF expressed on the cell membrane …. The experiment in a line: cell-based or functional assay.

T2 sequence (Q99075 20-208 limits assumed): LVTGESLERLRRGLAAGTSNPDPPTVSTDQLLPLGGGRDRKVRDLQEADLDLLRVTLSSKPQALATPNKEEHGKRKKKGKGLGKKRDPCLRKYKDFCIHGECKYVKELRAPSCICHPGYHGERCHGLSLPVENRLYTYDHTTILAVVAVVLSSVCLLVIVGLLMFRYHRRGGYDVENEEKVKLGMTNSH
T1 sequence (Q99075 63-148 limits assumed): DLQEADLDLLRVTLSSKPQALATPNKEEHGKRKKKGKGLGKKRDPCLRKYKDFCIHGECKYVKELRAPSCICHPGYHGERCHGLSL

B1: HC-15 antibody (antibody, V domains shown)
VH: EVQLQQSGPELVKPGASVKISCKASGYSFTGYYMHWVKQSPEKRLEWIGEINPRTGITTYNQKFKAKATLTVDKSSSTAYMQLKSLTSEDSAVYYCARVGSSGPFTYWGQGTLVTVSA
VL: DIVMTQSPSSLSVSAGDKVTMSCKSSQSLLNSRNQKNYLAWYQQKPWQPPKLLIYGASTRESGVPDRFTGSGSGTDFTLTISSVQAEDLAVYYCQNDYSYPFTFGTGTKLEIK
With B1, in assay [1], the “EC50 of the growth-inhibiting effect on EGFR_Ba/F3 cells” value was found to be 3.8 nM. In addition, the FACS (GEO-mean) came out at 234 GEO-mean in assay [2] and 594 GEO-mean in assay [3].

B2: chHC15, human chimeric antibody derived from HC15 antibody (antibody, human IgG1, kappa, V domains shown)
VH: B1 VH
VL: DIVMTQSPSSLSVSAGDKVTMSCKSSQSLLNSRNQKNYLAWYQQKPWQPPKLLIYGASTRESGVPDRFTGSGSGTDFTLTISSVQAEDLAVYYCQNDYSYPFTFGTGTKLEIKR
For B2, the EC50 (usually the concentration that produces a half-maximal response) in assay [4] turned out to be 3.3 nM; in assay [5] it was 0.21 nM.

B3: saporin-labeled HC-15 antibody (HC-SAP) (antibody, V domains shown)
VH: B1 VH
VL: B1 VL
modifications: antibody labeled with an average of 2.4 saporin molecules; sites not stated
Take B3: in assay [6], the “EC50 of cell death induction, ES-2 cells (WST-8)” value stood at 0.09 nM; the “EC50 of cell death induction, MCAS cells (WST-8)” value turned out to be 0.86 nM; the “EC50 of cell death induction, SKM-1 cells (WST-8)” value was 0.02 nM; the “EC50 of cell death induction, THP-1 cells (WST-8)” value was 0.01 nM. The “EC50 of cell death induction, U937 cells (WST-8)” value in assay [6] was 0.33 nM.

B4: chHE39, human chimeric antibody derived from HE39 antibody (antibody, V domains shown)
VH: EVQLQQSGPELMKPGASVKMSCKASGYIFTDYYMNWVKQSHGKSLEWIGRVNPNNGGTSYSQKFKDKATLTVDKSLNTAYMQVNSLTSEDSAVYYCARIYYGGSDWGQGTTLTVSS
VL: EIVMTQTPLSLSVTIGQPASISCKSSQSLLYTTGKTYLNWLQQRPGQAPKHLMYQVSKLVPGIPDRFSGSGSETDFTLKISRVEAEDLGVYYCLQGTYYPHTFGSGTKLEIKR
notes: Mouse HE39 variable regions linked to human IgG1 constant regions
In the case of B4, the EC50 in assay [4] was determined as 5.3 nM; in assay [5], 0.42 nM.
